In the supplement of paper PMC9732359:
± gives the uncertainty stated by the source.

Test: protein stability index of a GFP-peptide fusion (yeast GPS) (PSI 1-4); higher = more stable; sorted into four equal gates, so the index is relative within each strain
In short: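 Tiled 17-residue peptides from yeast proteins were fused downstream of GFP on a plasmid that also expresses Cherry, and the pooled library was carried in yeast. Mid-log cultures grown in leucine-free medium were sorted into four equal gates by GFP/Cherry fluorescence ratio. Plasmids from each gate were PCR-amplified and Illumina-sequenced, and reads were assigned to strains by barcodes. Each peptide's protein stability index is the sum, over gates, of the gate's read frequency multiplied by its gate number.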

Row | Sequence | protein stability index (doa10∆) | protein stability index (pdr5∆) | protein stability index (san1∆) | protein stability index (ubr1∆)
1 | VLSINPDMYERKVENIR [MED7] | 2.81 ± 0.08 | 3.03 ± 0.086 | 2.79 ± 0.052 | 2.79 ± 0.062
2 | SAAKASQSRSAKAGLTF [HTA1] | 3.06 ± 0.081 | 2.96 ± 0.084 | 2.98 ± 0.042 | 3.05 ± 0.034
3 | ARTATVSKKWAAAGVCE [RPL14B] | 2.9 ± 0.089 | 3.21 ± 0.084 | 3.58 ± 0.11 | 2.72 ± 0.066
4 | LNQLDGFETSKNIKIIM [RPT6] | 2.39 ± 0.25 | 2.62 ± 0.22 | 2.74 ± 0.14 | 2.7 ± 0.18
5 | SVARVEDHDVHSNESSN [IRR1] | 2.7 ± 0.059 | 2.99 ± 0.061 | 3.01 ± 0.052 | 2.81 ± 0.058
6 | GLSIHPTQITQYTQRLS [SRP68] | 2.09 ± 0.063 | 1.93 ± 0.066 | 1.92 ± 0.071 | 2.13 ± 0.071
7 | AKQAKIRAGEFDVVLTT [SNF2] | 3.56 ± 0.11 | 3.3 ± 0.13 | 2.57 ± 0.12 | 3.23 ± 0.11
8 | LNRIKKYLLTQRVFKPV [PRP8] | 2.22 ± 0.075 | 2.25 ± 0.072 | 2.33 ± 0.096 | 2.48 ± 0.069
9 | NFTCNRKILNFKKDLVI [SWI1] | 2.66 ± 0.081 | 2.88 ± 0.063 | 2.46 ± 0.1 | 2.87 ± 0.075
10 | IGLLNKSKSSLDGKFSL [RPN2] | 2.67 ± 0.089 | 2.85 ± 0.15 | 2.5 ± 0.14 | 2.74 ± 0.093
11 | FNGYNPEKKEMIQEVIV [FAS2] | 3.39 ± 0.086 | 3.46 ± 0.1 | 3.4 ± 0.08 | 3.4 ± 0.11
12 | MQVYLVPIERVAQLKPF [RPC37] | 1.9 ± 0.079 | 1.77 ± 0.065 | 1.87 ± 0.063 | 2.54 ± 0.058
13 | NDIHLRFMRFLADRDEF [ECM29] | 2.44 ± 0.065 | 2.24 ± 0.059 | 2.21 ± 0.16 | 2.5 ± 0.038
14 | SVRLQRFYQLGVDLKLK [CSN12] | 3.2 ± 0.21 | 3.13 ± 0.23 | 3.01 ± 0.24 | 3.06 ± 0.12
15 | RIQLMNDFTTKLINIKK [MED1] | 2.89 ± 0.081 | 2.81 ± 0.099 | 2.84 ± 0.11 | 2.97 ± 0.086
16 | EVEVSTRDLFDLEKDRA [RPO31] | 3.07 ± 0.052 | 3.37 ± 0.061 | 3.28 ± 0.042 | 3.23 ± 0.048
17 | KNKENNTFTWNHSLQHQ [RPN4] | 2.37 ± 0.083 | 2.34 ± 0.096 | 2.25 ± 0.067 | 1.95 ± 0.046
18 | LALENGEITKTENEKFI [NUT1] | 3.28 ± 0.15 | 3.45 ± 0.11 | 3.44 ± 0.066 | 3.3 ± 0.14
19 | LEIAKDFQPTELFDILS [IRR1] | 3.07 ± 0.13 | 2.33 ± 0.11 | 2.8 ± 0.079 | 3.08 ± 0.086
20 | AQANNNNNGLPQNGNIN [GAL11] | 3.04 ± 0.049 | 3.11 ± 0.049 | 3.05 ± 0.056 | 2.98 ± 0.038
21 | YSKDAKEIYYTPDPSEL [FAS2] | 2.44 ± 0.026 | 2.81 ± 0.028 | 2.6 ± 0.026 | 2.619 ± 0.024
22 | KRIESLQKDLQRQKTYV [SMC1] | 3.01 ± 0.16 | 3.2 ± 0.13 | 2.85 ± 0.21 | 2.9 ± 0.15
23 | IKNLPADVSKLMYSITF [SRB2] | 2.41 ± 0.054 | 2.95 ± 0.046 | 2.38 ± 0.049 | 2.76 ± 0.047
24 | VNLSEVMTVPGIDPTRI [RPO21] | 2.92 ± 0.083 | 3.07 ± 0.094 | 3.11 ± 0.05 | 3.05 ± 0.064
25 | TTILSFSSPAALMKTLI [NUT1] | 1.65 ± 0.047 | 1.75 ± 0.05 | 2.09 ± 0.1 | 1.78 ± 0.054
26 | IHFADVAHITTKSPAYP [RGR1] | 2.42 ± 0.054 | 2.61 ± 0.055 | 2.55 ± 0.045 | 2.56 ± 0.033
27 | VREYEQPDANKKKRSRT [ISW2] | 3.13 ± 0.14 | 3.31 ± 0.12 | 3.25 ± 0.13 | 3.29 ± 0.11
28 | GVDPTGSHLFSIHAHGS [PUP1] | 2.31 ± 0.1 | 2.52 ± 0.15 | 2.5 ± 0.11 | 2.06 ± 0.12

Row | Sequence | protein stability index (doa10∆) | protein stability index (pdr5∆) | protein stability index (san1∆) | protein stability index (ubr1∆)
29 | LETILEEFRNLAALNVW [SSN2] | 2.9 ± 0.11 | 2.98 ± 0.1 | 2.52 ± 0.11 | 3.32 ± 0.057
30 | QQPNPLQDLISVYGLDD [ROX3] | 1.95 ± 0.073 | 1.76 ± 0.061 | 2.02 ± 0.15 | 1.97 ± 0.084
31 | RLAEVNLKDLNNVKQMV [RPO21] | 2.77 ± 0.26 | – | 2.9 ± 0.25 | 3.08 ± 0.18
32 | DPELLRSYIFGGHVSQY [RPL5] | 3.16 ± 0.083 | 3.58 ± 0.13 | 3.33 ± 0.056 | 3.17 ± 0.14
33 | DSMKYTISSLFVQLCEM [RPC82] | 1.86 ± 0.044 | 2.26 ± 0.042 | 2.15 ± 0.062 | 2.17 ± 0.043
34 | TPQQLQMIQQRHQQLLR [SNF5] | 1.9 ± 0.044 | 2.32 ± 0.045 | 2.04 ± 0.052 | 1.74 ± 0.045
35 | QTYGETTAVDALQKGLK [RPC19] | 2.03 ± 0.13 | 1.1 ± 0.12 | 1.16 ± 0.29 | 1.14 ± 0.082
36 | SNNTAATADTTHLHEAL [NUT1] | 2.37 ± 0.076 | 3.07 ± 0.084 | 3.15 ± 0.11 | 3.02 ± 0.042
37 | QELQIKRDVLDDLYRKL [CSE2] | 2.27 ± 0.14 | 2.19 ± 0.15 | – | –
38 | TLGVVGKSEKLSLLLVE [SKI6] | 2.8 ± 0.051 | 3.04 ± 0.048 | 3.11 ± 0.035 | 2.96 ± 0.049
39 | VTNSPLFQTIEKLINNS [ECM29] | 2.73 ± 0.054 | 2.85 ± 0.058 | 2.76 ± 0.085 | 2.92 ± 0.066
40 | KENLSKSSWRQEWLANL [SIR4] | 1.98 ± 0.048 | 1.68 ± 0.034 | 1.92 ± 0.07 | 2.55 ± 0.026
41 | DYKGAKLNVVGWFHSHP [RRI1] | 2.81 ± 0.097 | 2.49 ± 0.1 | 2.38 ± 0.18 | 2.59 ± 0.061
42 | YPESISNELIEHFSHFG [YDL088C/ASM4] | 2.76 ± 0.067 | 3.02 ± 0.048 | 2.89 ± 0.043 | 2.93 ± 0.034
43 | NANTGFSFGGTQTGQNT [YGL172W/NUP49] | 3.42 ± 0.14 | 3.21 ± 0.11 | 3.23 ± 0.086 | 3.49 ± 0.11
44 | SSFRPCPLSQQFCGIKE [BRR2] | 2.45 ± 0.073 | 1.9 ± 0.054 | 2.38 ± 0.068 | 2.31 ± 0.037
45 | HKLDLAKRNLDANPSSQ [SMC2] | 1.86 ± 0.052 | 2.24 ± 0.065 | 1.67 ± 0.091 | 1.66 ± 0.035
46 | SLNEKNALHTERLHELK [SMC1] | 3.36 ± 0.061 | 3.11 ± 0.065 | 2.89 ± 0.067 | 2.81 ± 0.054
47 | ELTKNPNSNVELAGGNA [SMC1] | – | 3.01 ± 0.15 | 3.32 ± 0.086 | 3.37 ± 0.12
48 | KRPRSRTLTAVHDKVLE [RPS7B] | 3.36 ± 0.17 | 2.99 ± 0.13 | 3.02 ± 0.07 | 2.08 ± 0.24
49 | RIYDREPTVRIQAVFCL [YCG1] | 2.47 ± 0.11 | 1.72 ± 0.15 | 1.61 ± 0.21 | 2.39 ± 0.1
50 | PFTDRSVVRGNTFKVLS [COB] | 2.25 ± 0.082 | 2.56 ± 0.18 | 2.52 ± 0.091 | 2.37 ± 0.12
51 | SKRRITEELSITGEKLD [SMC1] | 2.17 ± 0.08 | 2.22 ± 0.072 | 2.18 ± 0.1 | 2.01 ± 0.078
52 | DDLQKFNGIENQSAYEW [ISW2] | 3.2 ± 0.21 | 3.23 ± 0.21 | 3.29 ± 0.1 | 3.32 ± 0.14
53 | NAISNTQDDFTTSVDVM [SRP54] | 2.79 ± 0.076 | 2.76 ± 0.061 | 3.1 ± 0.064 | 3.2 ± 0.045
54 | LRTVKEVQFGLFSPEEV [RPO21] | 2.76 ± 0.082 | 2.98 ± 0.081 | 3.02 ± 0.046 | 2.95 ± 0.043
55 | IDIQTQDLNQRFQDPYV [RRI1] | – | 2.86 ± 0.18 | 2.28 ± 0.22 | –
